Source: the nanobody polyreactivity screen of Harvey et al. (2022)

Assay: yeast display, Sf9 membrane polyspecificity reagent, FACS + sequencing; frameworks hold sequencing errors
Procedure, shortened: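 Nanobodies from a synthetic yeast display library (Saccharomyces cerevisiae BJ5465), induced 36–48 hours with galactose, were stained 1 hour at 4 °C with 10% biotinylated, detergent-solubilized Sf9 membrane reagent, enriched on streptavidin microbeads, then FACS-sorted. Anti-HA (expression) and streptavidin (reagent binding) fluorescence set low and high (top ~1%) gates. Polyreactivity labels come from the gate of origin. Genes were colony-PCR amplified, MiSeq 2 × 250 sequenced and filtered by CDR length.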

Sequence: QVQLHESGGGLVQAGGGLRLTCAASGSISSTGFMGWYRQAPCKELEPVAAIAPGPTTYYADSGKGRFTISRDNAKNTVYLQMTSPRPEDTAVNYGAVFTDNRVAFLYWGQGTQVTVSS
- polyreactivity (PSR sort gate): low polyreactivity

Sequence: QVQLVESGGGLVQAGGSLRLSCAASGVIFVNNGMGWYRQAPGKERELVAAISSGGSTNYADSVKGRFTIARDNAKNTDYLQMNSLKPEDTAVYYCAVVDYLWLLQLWLSDYWGQGTQVTVSS
- polyreactivity (PSR sort gate): low polyreactivity

Sequence: QVQLVESGGGLVQAGGSLRLSCAASGFNFSKYAMGWYRQAPGKERELVARINYNGGSTYYADSVKGRFTISRDNAKNTVYLQMNSLKPEDTAVYYCALVWRFSTRYYYWGQGTQVTVSS
- polyreactivity (PSR sort gate): high polyreactivity

Sequence: QVQIVESGGGLVQAGGSLRVSCAASGRTFRLYAMGWYRQAPGKERELVAAITRGGRTNYADSVKGRFTISRDNAKYTVYLHMNSLKPEDTAVYYCAARYVERHTDYYYWGQGSQVTVSS
- polyreactivity (PSR sort gate): low polyreactivity

Sequence: QVQLVESGGGLVQAGGSLRLSCAASGLIFPPYAMGWYRQAPGKEREFVARISWSTSSTYYADSVKGRFTISRDNAKNTVYLQMNSLKPEDTAVYYCNARFDDWWGEFDYWGQGTQVTVSS
- polyreactivity (PSR sort gate): high polyreactivity

Sequence: QVQLVESGRGLVQAGGSLRLSCADSGYIFWYYAMGWYRQAPGKERELVATITVSAGTTYFADSVKGRFTISRDNAKNTVYLQMNSLKPEDTAVYYCNKRSALSFVYDFDYWGQGTQVTVSS
- polyreactivity (PSR sort gate): low polyreactivity

Sequence: QVQLVESGGGLVQAGGSLRLSCAASGIIFLENAMGWYRQAPGKEREFVAAISRSGGITYYADSVKGRFTISRDNAKNTVYLQMNSLKPEDTAVYYCAAVGRDRYRHSPQPLYDYWGQGTQVTVSS
- polyreactivity (PSR sort gate): low polyreactivity

Sequence: QVQLVESGGGLVQAGGSLRLTCAASGSTFAYYAMRWYRQAPGTERELVAVINGITGSTYYADSVKGRFTISRDHAKNTVYLQMNSLKPEDTAVYYCNADYAVVTDEGDYWGQGTQVTVSS
- polyreactivity (PSR sort gate): low polyreactivity

Sequence: QVQLVESGGGLVQAGGSLRLSCASSGSIFSYYAKGWYIQAPGKASQLVADISQSGGTTYYADSVKGRFTISRDNAKNTVYLLKNSLKPEETAVYYCAARAPSSFDTQYYYWGEGTQVTVSS
- polyreactivity (PSR sort gate): low polyreactivity

Sequence: QVQLVESGGGLVQAGGSLRLSCAASGFTFIRYAMGWYRQAPGKERELVAAIRGTGTSTYYADSVKGRFTISRDNAKNTVYLQMNSLKPEDTAVYYCNKVSGRSPYTRYDYWGQGTQVTVSS
- polyreactivity (PSR sort gate): low polyreactivity

Sequence: QVQLVESGGGLVQAGGSLRLSCAASGFSFSDYPMGWYRQAPGKERELVAAISGSGGSTYYADSVKGRFTISRDTAKNSVYLQMNSLKPEDTSVYYCNKGYARRYASGYDYWGQGTQVTVSS
- polyreactivity (PSR sort gate): high polyreactivity

Sequence: QVQLVESGGGLVQAGGSLLLSCAASGLTFERYVMVWYRQAPGKERELVSSISRSGSTYYADSVKGRFTISRDNAKNTVYLQMNSLKPEDTAVYYCNADRFWFHWVYSRYHYDYWGQGTQVTVSS
- polyreactivity (PSR sort gate): high polyreactivity

Sequence: QVQLVESGGGLVQAGGSLRLSCAASGIIFRNYAMGWYRQAAGNERAWVAAISWTGDSTYYADSVKGRFTISRDNAKNTVYLQMNSQKPEETAVYYCAAEAYYGLWMDYWGQGTQVTVSS
- polyreactivity (PSR sort gate): low polyreactivity

Sequence: QVQLVESGGGLVQAGGSLRLSCSASGSISGYYAMGWYRQAPGKERELVASIRYTGARTYYADSVKGRFTISRDNAKNTVYLQMNSLKPEDTAVYYCAAERSWYTWFASDYDYWGQGTQVTVSS
- polyreactivity (PSR sort gate): low polyreactivity

Sequence: QVQLVESGGGLVQAGGSLSLICAASGTTFYYYAMGWYRQAPGKERELVAANTLRGTSTYYADSVKGRFTISRDNAKNTVDLQMNRLKPEDTAVYYCAVETYYSIFDIYDYWGQGTQVTVSS
- polyreactivity (PSR sort gate): low polyreactivity

Sequence: QVQLVESGGGLVQAGGSLRISCAASGLTFNAYAMGWYRQAPGKERELLADITTSDGSTFYADSVKGRFTISRDKATNTVYLQMNSLKPEDTAVYYCNADAYGWYSGPWFKWLLWYDYWGQGTQVTVSS
- polyreactivity (PSR sort gate): low polyreactivity

Sequence: QVQLVESGGGLVQAGGSLRLSCAASGRIFYYYAMGWYRQAPGKERELVAAITSGGRTYYADSVKGRFTISRDNAKNTVYLQMNSLKPEDTAVYYCAADRTYTYLGPGYEYWGQGTQVTVSS
- polyreactivity (PSR sort gate): low polyreactivity

Sequence: QLQLQESIGGLVQAGGSLRMSCAASGTIFHFHIMGWYRQAPGKEREFVAAISYGTSTYYADSVKGRFTISRDNAKNTVYLHMNSQKPEDTAVYYCAVYDYLEVYCWYWGQGTQVTLSS
- polyreactivity (PSR sort gate): low polyreactivity

Sequence: QVQLVESGGGLVQAGGSLRLSCAASGSIFEPNAMGRYRQAPGKEREFVAAISGSGGSTYYADSVKGRFTISRDNAKNTVYLQMNSLKPEDTAVYYCATRGKRSYFRTFYYWGEGTQVTVSS
- polyreactivity (PSR sort gate): high polyreactivity

Sequence: QVQLVESGGGLVQAGGSLRLSCAASGRTFSRNAMGWYRQAPGKERELVAAISRSGGSTYYADSVKGRFTISRDNAKNTVYFQLNSLKPEDTAVYYCKADVYSTYYNYNYWGQGTQVTVSS
- polyreactivity (PSR sort gate): high polyreactivity

Sequence: QGQLVESGGGLVQAGGSLRLSCAASGRTFGYYAMRWYRQARGKERELVAVITRSGGTTYYADSVKGRFTISRDNAKNTVYLQMKSLKPEDTAVYYCHPAYYTGMYWGQGTQVTVSS
- polyreactivity (PSR sort gate): high polyreactivity

Sequence: QVQLVESGGGLVQAGGSLRLSCAASGFTVDYYAMGWYLQAPGKERELVAAISSSGGSTYYADSVKGRFTISRDNAKNTVYLLMNSLKPEDTAVYYCATGHSKQYDYWGQGTQVTVSS
- polyreactivity (PSR sort gate): high polyreactivity

Sequence: QVQLVESGGGLVQAGGSLRLSCAASGFIFPSYAMGWYRQAPGKERELVAAITSSGGSTYYADSVKGRFTISRDNAKNTVYLQMNSLKPEDTAVYYCNARYPGRARRYNYWGQGTQVTVSS
- polyreactivity (PSR sort gate): high polyreactivity

Sequence: QVQLVESGGGLVQAGGSLRLSCAASGSPFRGYAMGWYRLAPGKEREFVAAISRRGGTTYYADSVKARFTISRDNAKNTGYLQMNSLKPEDTAVYYCNKVYYQHYLPVDYWGQGTQVTVSS
- polyreactivity (PSR sort gate): high polyreactivity

Sequence: QVQLVESGGGLVHAGGSLRLSCDASGITFWAYAMGWYRQAPGKEREFVAAITVSTGSTFYADSVKGRFTISRDNAKNTVYLQMNSLKREDTALYYCAAPQDGTWWLPAGGYWGQGTQVTVSS
- polyreactivity (PSR sort gate): low polyreactivity

Sequence: QVQLVESGGGLVQAGGSLRLSCAASGRTFAINVMGWYRQAPGKEMELVASIRGRGGRTNYADSVKGRFTISRDNAKNSVYLQMNSLKPEDTAVYYCAAAYTGGGQYEYEYWGQGTQVTVSS
- polyreactivity (PSR sort gate): high polyreactivity

Sequence: QVQLVESGGGLVQAGGSLRLSCAASGRIFSYYVMGWSRQAPGKERELVAAISYRGGGTYYADSVKGRFTISRDNAKNTVYLQMNSLKPEDTAVYYCNADTYSNTYRAYDYWGQGTQVTVSS
- polyreactivity (PSR sort gate): low polyreactivity

Sequence: QVQLVESGGGLVQAGGSLRLSCAASGSILGHYAMGWYRQAPGTERELVAAISRGGSTTYYADSVKGRFTISRDNAKNTVYFQMNSLKPEDTAVYYCAARSASKMDYWGQGTQVNVSS
- polyreactivity (PSR sort gate): high polyreactivity

Sequence: QVQLVESGGGLVQAGCSLRLRCAASGRIYPYYAMGWYRQAPGKERELVAAIRGGGTSTRYADSVKGRFTISRDNAKKTVDLQMNSLKPSDTADYYCAAVWYSGSTRYSKYLEYYYWGQGTQVTVSS
- polyreactivity (PSR sort gate): high polyreactivity

Sequence: QVQLVESGGGLVQAGGSLRLSCAASGSTFSVYAMGWYRQAPGKERELVARITGGSTYADSVKGRFTISRDNAKNTVYLQMNSLKPEDTAVYFCNAYRYWSPGYDYWGQGTQVTVSS
- polyreactivity (PSR sort gate): low polyreactivity

Sequence: QVQLVESGGGLVQAGGSLRLSCAASGSIFARYAMGWYRQAPGKERELVAAITSGGITNYADSVKGRFTISRDNAKNTVYLQKNSLKPEDTAVYYCAARRSGRVRYDYWGQGTQVTVSS
- polyreactivity (PSR sort gate): high polyreactivity

Sequence: QVQLVESGGGLVQAGGSLRLSCAASRSTFYAYALGCYRQAPGKERELVAAIDSGGSTYYADSVKGRFTISRDNAKNTVYLQMNSLKPEDTAVYYCAVRHRYTRAYWGRDYWGQGTQVTVSS
- polyreactivity (PSR sort gate): low polyreactivity

Sequence: QVQLVDSGGGLVQAGGSLRLSCAASGCTFGSYAMGWYRQAPGKERELVAGITGSGGRTYYADSVKGRFTISRDNAKNTVYLQMNSLKPEDTAVYYCATTGRRWYYPYHYWGQGTHVTVSS
- polyreactivity (PSR sort gate): high polyreactivity

Sequence: QVQLVESGGGLVQAGGSLRLSCAASGFTIAKYAMGWYRQAPGKERELVAAISSSGGRTYYADSVKGRFTISRDIAKNTVYLQMNSLNPEDTAVYYCAADFSGPFDYWGQGTQVSVSS
- polyreactivity (PSR sort gate): high polyreactivity

Sequence: QDQLVQSGGGLVQAGGSLRLSCDASGSTLNWYAMGRYRQAPGKERELVAVITSSGVSTYYADSVKGRFTISRDNAKNTVYLQMNSLKPEDTAVYYCNAKWYRWQRGTVKYDYWGQGTQVTVSS
- polyreactivity (PSR sort gate): low polyreactivity

Sequence: QVQLVESGGGLVQAGGSLRLSCAASGSIFEPYAMGWYRQAPGKERELVAAIRVSGGSTYYADSVKGRFTISRDNAKNTVYLQMNSLKPEDTAVYYCAADWWSRYYYWGQGTQVTVSS
- polyreactivity (PSR sort gate): high polyreactivity

Sequence: QVQLVESGGGFVQAGGSLRLSCAASGSTFKTYTLGWYRQAPGKDRELVAGITSGGSTSYADSVKGRFTISRDNAKNTVYLQMNSLKPEATAVYYCNADAYLVIYFYTVRDYGYDYWGQGTQVTVSS
- polyreactivity (PSR sort gate): low polyreactivity

Sequence: QVQLVESGGGLVQAGGSLRLSCAATGRTFVSNAMGWYRQAPGKERELVAAISSSTGSTYYADSVKGRFTISRDNAKNTVYLQMNSLKPEDTAVYYCAAYLLGRSPYDYWGQGTQVTVSS
- polyreactivity (PSR sort gate): low polyreactivity

Sequence: QVQLVESGGGLVQAGGSLRLSCAASGFTCPYYMGWYRQAPGKERELVADISWSDGSTYYADSVKGRFTISRDNAKNTVSLQMNSLKPEDTAVYYCAADYVSSWFYLPEYDYWGQGTQVTVSS
- polyreactivity (PSR sort gate): high polyreactivity

Sequence: QVQLVESGGGLVQAGGRLRRICAASGRIYSRYTMGWYRQAPGKERQLVAVITSGGSTYYADSVKGRFTISRDNAKNTVYLQMNSLKPDDTAVYYCNAVRFTYGGYLRRYDYWGHGTQVTVSS
- polyreactivity (PSR sort gate): high polyreactivity

Sequence: QVQLVESGGGLVQAGGSLRLSCAASGITFIYYAMGWYRQAPGKEREFVAAITFRDGDTYYADSVKGRFTISRDNAKNTVYLQMNSLKPEDTAVYYCADTYWVYYYYPGYDYWGQGTQVTVSS
- polyreactivity (PSR sort gate): low polyreactivity

Sequence: QVQLVESGGGLVQAGGSLRLSCAASGSTFSRYSMGWYRQAPGKERELVAAITGRGGRTYYADSVKGRFTISRDNAKKTVYLQLNSLKPEDTAVYYCAAYYGPYRSLYYYWGQGNQVTVSS
- polyreactivity (PSR sort gate): high polyreactivity

Sequence: QVQLVESGGGLVQAGGSLRLSCAASGFIFHGYAMGWYRQAPGKERELVAAISGTGGSTYYADSVKGRFTISRDNAKNTVYLQMNSLKPEDTAVYYYKAERSGNGYWGQGTQVTVSS
- polyreactivity (PSR sort gate): high polyreactivity
